Test results published in US20180155451A1 (published 2018).

Legend:
[1] = target: T1, FcγRIa (human, UniProt P12314 16-292); assay: SPR; He/Con_1a divided by He/Con_2b (FcγRIIb as reference)
T1 construct: extracellular domain; also called FcgRI; 1a; not shown: His tag at the C terminus

[2] = target: T1, FcγRIa; assay: SPR (Biacore), captured antibody, soluble FcγR; relative to GpH7-A5/GpH7-B3/GpL16-k0
[3] = target: T2, FcγRIIb (human, UniProt P31994 43-217); assay: as above
T2 construct: extracellular domain; also called FcgRIIb; 2b; not shown: His tag at the C terminus
T2 sequence (looked up): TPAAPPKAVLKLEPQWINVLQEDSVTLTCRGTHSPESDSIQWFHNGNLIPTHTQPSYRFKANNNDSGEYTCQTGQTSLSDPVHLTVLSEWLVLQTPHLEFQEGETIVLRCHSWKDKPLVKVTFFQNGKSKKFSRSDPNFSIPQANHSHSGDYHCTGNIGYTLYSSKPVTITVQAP

T1 sequence (P12314 16-292): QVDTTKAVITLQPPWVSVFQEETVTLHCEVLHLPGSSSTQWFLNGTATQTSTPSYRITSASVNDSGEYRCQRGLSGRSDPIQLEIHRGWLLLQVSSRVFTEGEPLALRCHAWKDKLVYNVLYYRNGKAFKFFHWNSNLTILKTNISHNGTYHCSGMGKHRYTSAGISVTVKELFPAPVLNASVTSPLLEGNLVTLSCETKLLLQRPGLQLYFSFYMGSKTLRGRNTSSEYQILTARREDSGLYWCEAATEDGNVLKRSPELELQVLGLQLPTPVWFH

Binder | Ia/IIb He_1a/2b [1] | He/Con_1a [2] | He/Con_2b [3]
GpH7-A5/GpH7-B3 variant D265_02A/GpL16-k0 (antibody, human IgG1, kappa, He Ab: mutation only in the GpH7-B3 H chain; EU numbering; also called He Ab) heavy 1: not shown heavy 2: not shown light: DIVMTQSPLSLPVTPGEPASISCQASESLVHSNRNTYLHWYLQKPGQSPQLLIYKVSNRFSGVPDRFSGSGSGTDFTLKISRVEAEDVGVYYCSQNTHVPPTFGQGTKVEIERTVAAPSVFIFPPSDEQLKSGTASVVCLLNNFYPREAKVQWKVDNALQSGNSQESVTEQDSKDSTYSLSSTLTLSKADYEKHKVYACEVTHQGLSSPVTKSFNRGEC | 4.25 ratio | 84.5 relative, HeCon Ab = 100 | 19.9 relative, HeCon Ab = 100
GpH7-A5/GpH7-B3 variant D265_12R/GpL16-k0 (antibody, human IgG1, kappa, He Ab: mutation only in the GpH7-B3 H chain; EU numbering; also called He Ab) heavy 1: not shown heavy 2: not shown light: DIVMTQSPLSLPVTPGEPASISCQASESLVHSNRNTYLHWYLQKPGQSPQLLIYKVSNRFSGVPDRFSGSGSGTDFTLKISRVEAEDVGVYYCSQNTHVPPTFGQGTKVEIERTVAAPSVFIFPPSDEQLKSGTASVVCLLNNFYPREAKVQWKVDNALQSGNSQESVTEQDSKDSTYSLSSTLTLSKADYEKHKVYACEVTHQGLSSPVTKSFNRGEC | 2.96 ratio | 44.3 relative, HeCon Ab = 100 | 15 relative, HeCon Ab = 100
GpH7-A5/GpH7-B3 variant D265_04F/GpL16-k0 (antibody, human IgG1, kappa, He Ab: mutation only in the GpH7-B3 H chain; EU numbering; also called He Ab) heavy 1: not shown heavy 2: not shown light: DIVMTQSPLSLPVTPGEPASISCQASESLVHSNRNTYLHWYLQKPGQSPQLLIYKVSNRFSGVPDRFSGSGSGTDFTLKISRVEAEDVGVYYCSQNTHVPPTFGQGTKVEIERTVAAPSVFIFPPSDEQLKSGTASVVCLLNNFYPREAKVQWKVDNALQSGNSQESVTEQDSKDSTYSLSSTLTLSKADYEKHKVYACEVTHQGLSSPVTKSFNRGEC | 16.8 ratio | 53 relative, HeCon Ab = 100 | 3.2 relative, HeCon Ab = 100
GpH7-A5/GpH7-B3 variant D265_20W/GpL16-k0 (antibody, human IgG1, kappa, He Ab: mutation only in the GpH7-B3 H chain; EU numbering; also called He Ab) heavy 1: not shown heavy 2: not shown light: DIVMTQSPLSLPVTPGEPASISCQASESLVHSNRNTYLHWYLQKPGQSPQLLIYKVSNRFSGVPDRFSGSGSGTDFTLKISRVEAEDVGVYYCSQNTHVPPTFGQGTKVEIERTVAAPSVFIFPPSDEQLKSGTASVVCLLNNFYPREAKVQWKVDNALQSGNSQESVTEQDSKDSTYSLSSTLTLSKADYEKHKVYACEVTHQGLSSPVTKSFNRGEC | 45.6 ratio | 51.5 relative, HeCon Ab = 100 | 1.1 relative, HeCon Ab = 100
GpH7-A5/GpH7-B3 variant D265_15Y/GpL16-k0 (antibody, human IgG1, kappa, He Ab: mutation only in the GpH7-B3 H chain; EU numbering; also called He Ab) heavy 1: not shown heavy 2: not shown light: DIVMTQSPLSLPVTPGEPASISCQASESLVHSNRNTYLHWYLQKPGQSPQLLIYKVSNRFSGVPDRFSGSGSGTDFTLKISRVEAEDVGVYYCSQNTHVPPTFGQGTKVEIERTVAAPSVFIFPPSDEQLKSGTASVVCLLNNFYPREAKVQWKVDNALQSGNSQESVTEQDSKDSTYSLSSTLTLSKADYEKHKVYACEVTHQGLSSPVTKSFNRGEC | 73.5 ratio | 44.3 relative, HeCon Ab = 100 | 0.6 relative, HeCon Ab = 100
GpH7-A5/GpH7-B3 variant D265_03V/GpL16-k0 (antibody, human IgG1, kappa, He Ab: mutation only in the GpH7-B3 H chain; EU numbering; also called He Ab) heavy 1: not shown heavy 2: not shown light: DIVMTQSPLSLPVTPGEPASISCQASESLVHSNRNTYLHWYLQKPGQSPQLLIYKVSNRFSGVPDRFSGSGSGTDFTLKISRVEAEDVGVYYCSQNTHVPPTFGQGTKVEIERTVAAPSVFIFPPSDEQLKSGTASVVCLLNNFYPREAKVQWKVDNALQSGNSQESVTEQDSKDSTYSLSSTLTLSKADYEKHKVYACEVTHQGLSSPVTKSFNRGEC | 17.3 ratio | 55.7 relative, HeCon Ab = 100 | 3.2 relative, HeCon Ab = 100
GpH7-A5/GpH7-B3 variant D265_18N/GpL16-k0 (antibody, human IgG1, kappa, He Ab: mutation only in the GpH7-B3 H chain; EU numbering; also called He Ab) heavy 1: not shown heavy 2: not shown light: DIVMTQSPLSLPVTPGEPASISCQASESLVHSNRNTYLHWYLQKPGQSPQLLIYKVSNRFSGVPDRFSGSGSGTDFTLKISRVEAEDVGVYYCSQNTHVPPTFGQGTKVEIERTVAAPSVFIFPPSDEQLKSGTASVVCLLNNFYPREAKVQWKVDNALQSGNSQESVTEQDSKDSTYSLSSTLTLSKADYEKHKVYACEVTHQGLSSPVTKSFNRGEC | 4.52 ratio | 27.7 relative, HeCon Ab = 100 | 6.1 relative, HeCon Ab = 100
GpH7-A5/GpH7-B3 variant D265_19Q/GpL16-k0 (antibody, human IgG1, kappa, He Ab: mutation only in the GpH7-B3 H chain; EU numbering; also called He Ab) heavy 1: not shown heavy 2: not shown light: DIVMTQSPLSLPVTPGEPASISCQASESLVHSNRNTYLHWYLQKPGQSPQLLIYKVSNRFSGVPDRFSGSGSGTDFTLKISRVEAEDVGVYYCSQNTHVPPTFGQGTKVEIERTVAAPSVFIFPPSDEQLKSGTASVVCLLNNFYPREAKVQWKVDNALQSGNSQESVTEQDSKDSTYSLSSTLTLSKADYEKHKVYACEVTHQGLSSPVTKSFNRGEC | 2.66 ratio | 88.8 relative, HeCon Ab = 100 | 33.4 relative, HeCon Ab = 100
GpH7-A5/GpH7-B3 variant H268_06M/GpL16-k0 (antibody, human IgG1, kappa, He Ab: mutation only in the GpH7-B3 H chain; EU numbering; also called He Ab) heavy 1: not shown heavy 2: not shown light: DIVMTQSPLSLPVTPGEPASISCQASESLVHSNRNTYLHWYLQKPGQSPQLLIYKVSNRFSGVPDRFSGSGSGTDFTLKISRVEAEDVGVYYCSQNTHVPPTFGQGTKVEIERTVAAPSVFIFPPSDEQLKSGTASVVCLLNNFYPREAKVQWKVDNALQSGNSQESVTEQDSKDSTYSLSSTLTLSKADYEKHKVYACEVTHQGLSSPVTKSFNRGEC | 1.59 ratio | 105 relative, HeCon Ab = 100 | 65.7 relative, HeCon Ab = 100
GpH7-A5/GpH7-B3 variant D265_07I/GpL16-k0 (antibody, human IgG1, kappa, He Ab: mutation only in the GpH7-B3 H chain; EU numbering; also called He Ab) heavy 1: not shown heavy 2: not shown light: DIVMTQSPLSLPVTPGEPASISCQASESLVHSNRNTYLHWYLQKPGQSPQLLIYKVSNRFSGVPDRFSGSGSGTDFTLKISRVEAEDVGVYYCSQNTHVPPTFGQGTKVEIERTVAAPSVFIFPPSDEQLKSGTASVVCLLNNFYPREAKVQWKVDNALQSGNSQESVTEQDSKDSTYSLSSTLTLSKADYEKHKVYACEVTHQGLSSPVTKSFNRGEC | 41.2 ratio | 54.4 relative, HeCon Ab = 100 | 1.3 relative, HeCon Ab = 100
GpH7-A5/GpH7-B3 variant D265_08L/GpL16-k0 (antibody, human IgG1, kappa, He Ab: mutation only in the GpH7-B3 H chain; EU numbering; also called He Ab) heavy 1: not shown heavy 2: not shown light: DIVMTQSPLSLPVTPGEPASISCQASESLVHSNRNTYLHWYLQKPGQSPQLLIYKVSNRFSGVPDRFSGSGSGTDFTLKISRVEAEDVGVYYCSQNTHVPPTFGQGTKVEIERTVAAPSVFIFPPSDEQLKSGTASVVCLLNNFYPREAKVQWKVDNALQSGNSQESVTEQDSKDSTYSLSSTLTLSKADYEKHKVYACEVTHQGLSSPVTKSFNRGEC | 12.4 ratio | 56.8 relative, HeCon Ab = 100 | 4.6 relative, HeCon Ab = 100
GpH7-A5/GpH7-B3 variant D265_06M/GpL16-k0 (antibody, human IgG1, kappa, He Ab: mutation only in the GpH7-B3 H chain; EU numbering; also called He Ab) heavy 1: not shown heavy 2: not shown light: DIVMTQSPLSLPVTPGEPASISCQASESLVHSNRNTYLHWYLQKPGQSPQLLIYKVSNRFSGVPDRFSGSGSGTDFTLKISRVEAEDVGVYYCSQNTHVPPTFGQGTKVEIERTVAAPSVFIFPPSDEQLKSGTASVVCLLNNFYPREAKVQWKVDNALQSGNSQESVTEQDSKDSTYSLSSTLTLSKADYEKHKVYACEVTHQGLSSPVTKSFNRGEC | 7.57 ratio | 75.7 relative, HeCon Ab = 100 | 10 relative, HeCon Ab = 100
GpH7-A5/GpH7-B3 variant D265_14T/GpL16-k0 (antibody, human IgG1, kappa, He Ab: mutation only in the GpH7-B3 H chain; EU numbering; also called He Ab) heavy 1: not shown heavy 2: not shown light: DIVMTQSPLSLPVTPGEPASISCQASESLVHSNRNTYLHWYLQKPGQSPQLLIYKVSNRFSGVPDRFSGSGSGTDFTLKISRVEAEDVGVYYCSQNTHVPPTFGQGTKVEIERTVAAPSVFIFPPSDEQLKSGTASVVCLLNNFYPREAKVQWKVDNALQSGNSQESVTEQDSKDSTYSLSSTLTLSKADYEKHKVYACEVTHQGLSSPVTKSFNRGEC | 4.9 ratio | 78.5 relative, HeCon Ab = 100 | 16 relative, HeCon Ab = 100
GpH7-A5/GpH7-B3 variant D265_10E/GpL16-k0 (antibody, human IgG1, kappa, He Ab: mutation only in the GpH7-B3 H chain; EU numbering; also called He Ab) heavy 1: not shown heavy 2: not shown light: DIVMTQSPLSLPVTPGEPASISCQASESLVHSNRNTYLHWYLQKPGQSPQLLIYKVSNRFSGVPDRFSGSGSGTDFTLKISRVEAEDVGVYYCSQNTHVPPTFGQGTKVEIERTVAAPSVFIFPPSDEQLKSGTASVVCLLNNFYPREAKVQWKVDNALQSGNSQESVTEQDSKDSTYSLSSTLTLSKADYEKHKVYACEVTHQGLSSPVTKSFNRGEC | 2.66 ratio | 101 relative, HeCon Ab = 100 | 38.2 relative, HeCon Ab = 100
GpH7-A5/GpH7-B3 variant D265_13S/GpL16-k0 (antibody, human IgG1, kappa, He Ab: mutation only in the GpH7-B3 H chain; EU numbering; also called He Ab) heavy 1: not shown heavy 2: not shown light: DIVMTQSPLSLPVTPGEPASISCQASESLVHSNRNTYLHWYLQKPGQSPQLLIYKVSNRFSGVPDRFSGSGSGTDFTLKISRVEAEDVGVYYCSQNTHVPPTFGQGTKVEIERTVAAPSVFIFPPSDEQLKSGTASVVCLLNNFYPREAKVQWKVDNALQSGNSQESVTEQDSKDSTYSLSSTLTLSKADYEKHKVYACEVTHQGLSSPVTKSFNRGEC | 6.07 ratio | 68.7 relative, HeCon Ab = 100 | 11.3 relative, HeCon Ab = 100
GpH7-A5/GpH7-B3 variant D265_11K/GpL16-k0 (antibody, human IgG1, kappa, He Ab: mutation only in the GpH7-B3 H chain; EU numbering; also called He Ab) heavy 1: not shown heavy 2: not shown light: DIVMTQSPLSLPVTPGEPASISCQASESLVHSNRNTYLHWYLQKPGQSPQLLIYKVSNRFSGVPDRFSGSGSGTDFTLKISRVEAEDVGVYYCSQNTHVPPTFGQGTKVEIERTVAAPSVFIFPPSDEQLKSGTASVVCLLNNFYPREAKVQWKVDNALQSGNSQESVTEQDSKDSTYSLSSTLTLSKADYEKHKVYACEVTHQGLSSPVTKSFNRGEC | 2.9 ratio | 43.2 relative, HeCon Ab = 100 | 14.9 relative, HeCon Ab = 100
GpH7-A5/GpH7-B3 variant D265_16H/GpL16-k0 (antibody, human IgG1, kappa, He Ab: mutation only in the GpH7-B3 H chain; EU numbering; also called He Ab) heavy 1: not shown heavy 2: not shown light: DIVMTQSPLSLPVTPGEPASISCQASESLVHSNRNTYLHWYLQKPGQSPQLLIYKVSNRFSGVPDRFSGSGSGTDFTLKISRVEAEDVGVYYCSQNTHVPPTFGQGTKVEIERTVAAPSVFIFPPSDEQLKSGTASVVCLLNNFYPREAKVQWKVDNALQSGNSQESVTEQDSKDSTYSLSSTLTLSKADYEKHKVYACEVTHQGLSSPVTKSFNRGEC | 2.23 ratio | 85.4 relative, HeCon Ab = 100 | 38.3 relative, HeCon Ab = 100
